Test results: patent publication US20190361034A1

How the values were obtained:
[1] = molecular target: MHC class II molecules on MHC class II-expressing Raji cells (human); assay: transfer cell ELISA, Raji cells; 1.953 ng/ml; plate row C
[2] = molecular target: MHC class II molecules on MHC class II-expressing Raji cells (human); assay: direct ELISA, plate-immobilised Raji cells; 5% BSA, 10,000 cells; 31.25 ng/ml
[3] = molecular target: MHC class II molecules on MHC class II-expressing Raji cells (human); assay: transfer cell ELISA, Raji cells; 31.25 ng/ml; plate row C
[4] = molecular target: MHC class II molecules on MHC class II-expressing Raji cells (human); assay: transfer cell ELISA, Raji cells; 250 ng/ml; plate row C
[5] = molecular target: MHC class II molecules on MHC class II-expressing Raji cells (human); assay: direct ELISA, plate-immobilised Raji cells; 10% FBS, 10,000 cells; 15.625 ng/ml
[6] = molecular target: MHC class II molecules on MHC class II-expressing Raji cells (human); assay: direct ELISA, plate-immobilised Raji cells; 10% FBS, 2,500 cells; 250 ng/ml
[7] = molecular target: MHC class II molecules on MHC class II-expressing Raji cells (human); assay: direct ELISA, plate-immobilised Raji cells; 5% BSA, 5,000 cells; 1000 ng/ml
[8] = molecular target: MHC class II molecules on MHC class II-expressing Raji cells (human); assay: transfer cell ELISA, Raji cells; 0.977 ng/ml; plate row D
[9] = molecular target: MHC class II molecules on MHC class II-expressing Raji cells (human); assay: transfer cell ELISA, Raji cells; 7.813 ng/ml; plate row C
[10] = molecular target: MHC class II molecules on MHC class II-expressing Raji cells (human); assay: direct ELISA, plate-immobilised Raji cells; 10% FBS, 2,500 cells; 15.625 ng/ml
[11] = molecular target: MHC class II molecules on MHC class II-expressing Raji cells (human); assay: direct ELISA, plate-immobilised Raji cells; 10% FBS, 10,000 cells; 62.5 ng/ml
[12] = molecular target: MHC class II molecules on MHC class II-expressing Raji cells (human); assay: direct ELISA, plate-immobilised Raji cells; 5% BSA, 10,000 cells; 15.625 ng/ml
[13] = molecular target: MHC class II molecules on MHC class II-expressing Raji cells (human); assay: direct ELISA, plate-immobilised Raji cells; 5% BSA, 5,000 cells; 250 ng/ml
[14] = molecular target: MHC class II molecules on MHC class II-expressing Raji cells (human); assay: direct ELISA, plate-immobilised Raji cells; 10% FBS, 2,500 cells; 1000 ng/ml
[15] = molecular target: MHC class II molecules on MHC class II-expressing Raji cells (human); assay: direct ELISA, plate-immobilised Raji cells; 3% gelatin, 10,000 cells; 250 ng/ml
[16] = molecular target: MHC class II molecules on MHC class II-expressing Raji cells (human); assay: direct ELISA, plate-immobilised Raji cells; 0.5% Casein, 2,500 cells; 15.625 ng/ml
[17] = molecular target: MHC class II molecules on MHC class II-expressing Raji cells (human); assay: direct ELISA, plate-immobilised Raji cells; 0.5% Casein, 2,500 cells; 250 ng/ml
[18] = molecular target: MHC class II molecules on MHC class II-expressing Raji cells (human); assay: transfer cell ELISA, Raji cells; 1.953 ng/ml
[19] = molecular target: MHC class II molecules on MHC class II-expressing Raji cells (human); assay: transfer cell ELISA, Raji cells; 1000 ng/ml
[20] = molecular target: MHC class II molecules on MHC class II-expressing Raji cells (human); assay: direct ELISA, plate-immobilised Raji cells; 3% gelatin, 2,500 cells; 1000 ng/ml
[21] = molecular target: MHC class II molecules on MHC class II-expressing Raji cells (human); assay: transfer cell ELISA, Raji cells; 125 ng/ml
[22] = molecular target: MHC class II molecules on MHC class II-expressing Raji cells (human); assay: direct ELISA, plate-immobilised Raji cells; 3% gelatin, 10,000 cells; 125 ng/ml
[23] = molecular target: MHC class II molecules on MHC class II-expressing Raji cells (human); assay: direct ELISA, plate-immobilised Raji cells; 3% gelatin, 2,500 cells; 31.25 ng/ml
[24] = molecular target: MHC class II molecules on MHC class II-expressing Raji cells (human); assay: direct ELISA, plate-immobilised Raji cells; 0.5% Casein, 5,000 cells; 250 ng/ml
[25] = molecular target: MHC class II molecules on MHC class II-expressing Raji cells (human); assay: direct ELISA, plate-immobilised Raji cells; 3% gelatin, 10,000 cells; 62.5 ng/ml
[26] = molecular target: MHC class II molecules on MHC class II-expressing Raji cells (human); assay: direct ELISA, plate-immobilised Raji cells; 3% gelatin, 10,000 cells; 31.25 ng/ml
[27] = molecular target: MHC class II molecules on MHC class II-expressing Raji cells (human); assay: direct ELISA, plate-immobilised Raji cells; 0.5% Casein, 2,500 cells; 1000 ng/ml
[28] = molecular target: MHC class II molecules on MHC class II-expressing Raji cells (human); assay: direct ELISA, plate-immobilised Raji cells; 3% gelatin, 2,500 cells; 500 ng/ml
[29] = molecular target: MHC class II molecules on MHC class II-expressing Raji cells (human); assay: transfer cell ELISA, Raji cells; 15.63 ng/ml

Substance: IMP321 treated with Peptide-N-Glycosidase F (PNGase F) (Fc fusion)
- OD (ELISA signal) [1]: 0.011 OD
- OD (ELISA signal) [2]: 0.31 OD
- OD (ELISA signal) [3]: 0.042 OD
- OD (ELISA signal) [4]: 0.276 OD
- OD (ELISA signal) [5]: 0.333 OD
- OD (ELISA signal) [6]: 1.29 OD
- OD (ELISA signal) [7]: 1.81 OD
- OD (ELISA signal) [8]: 0.01 OD
- OD (ELISA signal) [9]: 0.02 OD
- OD (ELISA signal) [10]: 0.27 OD
- OD (ELISA signal) [11]: 0.29 OD
- OD (ELISA signal) [12]: 0.366 OD
- OD (ELISA signal) [13]: 1.09 OD
- OD (ELISA signal) [14]: 2.39 OD

Substance: IMP321, recombinant soluble human LAG-3Ig fusion protein (Fc fusion)
- OD (ELISA signal) [15]: 1.39 OD
- OD (ELISA signal) [16]: 0.168 OD
- OD (ELISA signal) [17]: 0.231 OD
- OD (ELISA signal) [18]: 0.026 OD
- OD (ELISA signal) [19]: 2.03 OD
- OD (ELISA signal) [20]: 2.6 OD
- OD (ELISA signal) [21]: 0.475 OD
- OD (ELISA signal) [22]: 0.688 OD
- OD (ELISA signal) [23]: 0.303 OD
- OD (ELISA signal) [24]: 0.255 OD
- OD (ELISA signal) [25]: 0.417 OD
- OD (ELISA signal) [26]: 0.389 OD
- OD (ELISA signal) [27]: 0.112 OD
- OD (ELISA signal) [28]: 2.56 OD
- OD (ELISA signal) [29]: 0.098 OD
